Data on 17 molecules can be found in patent publication US20260159603A1 (BEAM THERAPEUTICS, published 2026).

T1: huCD5-BTN (human, UniProt P06127 25-372, limits assumed, biotinylated (BTN))
T1 construct: Loaded onto streptavidin biosensors; also called human CD5
T1 sequence (looked up): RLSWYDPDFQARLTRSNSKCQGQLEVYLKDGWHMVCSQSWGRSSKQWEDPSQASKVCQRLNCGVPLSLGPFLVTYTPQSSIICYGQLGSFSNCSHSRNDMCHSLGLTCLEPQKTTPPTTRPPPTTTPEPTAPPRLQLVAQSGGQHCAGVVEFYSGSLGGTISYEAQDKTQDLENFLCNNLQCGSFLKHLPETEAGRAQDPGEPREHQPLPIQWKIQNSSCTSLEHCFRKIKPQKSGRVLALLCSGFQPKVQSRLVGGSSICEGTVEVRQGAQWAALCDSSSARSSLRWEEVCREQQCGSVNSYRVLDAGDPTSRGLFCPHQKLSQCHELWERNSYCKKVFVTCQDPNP

B1: ABTx319 VHH-Fc (Fc fusion)
chain: QVQLVESGGGLVQPGGSLRLSCAASGFTFSMYSMSWVRQAPGKRLEWVSSISTGARDTAYADSVKGRFTISRDNADNTLYLHMNNLKPEDTAVYYCANGDLRYGPDGYDYRGQGTQVTVSS
notes: VHH as Fc fusion protein; order of the parts and the Fc are not described; also called anti-CD5 VHH-Fc; not shown: Fc (detected with anti-Human Fc)
B2: ABTx324 VHH-Fc (Fc fusion)
chain: QVQLVESGGGLVQPGGSVRLSCATSGSIFSTNVMGWYRQAPGKEREFVALIRGGGSTHYADSVKGRFIISRENAKTTVYLQMNGLKPEDTAVYYCVIWLGSPGAMSDYWGQGTQVTVSS
notes: as for B1
B3: ABTx320 VHH-Fc (Fc fusion)
chain: QVQLVESGGGLVQAGGSLRLSCAASGPAFSSSGMGWFRQAPGKAREFVASMDWTGGSTYYGDSVKGRFTVSRDNAKMTVHLQMNSLRPEDTAVYYCARGTSGVAAVNLRGFFSWGPGTQVTVSS
notes: as for B1
B4: ABTx321 VHH-Fc (Fc fusion)
chain: QLQLVESGGGLVQPGESLRLSCVVSGDIFSFVGWGWYRQAPGKQREVVAQISTGGLTNYADSVKGRFAISRDNAKRTVYLQMNSLKFEDTAVYYCNVPGHPWGQGTQVTVSS
notes: as for B1
B5: ABTx328 VHH-Fc (Fc fusion)
chain: QVQLVESGGGLVQPGESLRLSCVVSGDIFSFIGWGWYRQAPGKQRELVAQINTGGLTDYADSVKGRFTISRDNAKRTVYLQMNSLKFEDTAVYYCNFPGHSWGQGTQVTVSS
notes: as for B1
B6: ABTx323 VHH-Fc (Fc fusion)
chain: QVQLQESGGGLVQAGGSLRLSCATSGITSSINVIGWYRQAPGKQRELVALVNSGGQTHYADSVKGRFTISRDNAKNTVFLQMNSLKPEDTAEYYCHGRYGIDNYWGEGTQVTVSS
notes: as for B1
B7: ABTx315 VHH-Fc (Fc fusion)
chain: QVQLVESGGGLVQAGGSLRLSCAASGRTFGTYTMGWFRQAPGREREFVAAISWSAGRTYYADSMKGRFTISRDNAKNTVYLQMNSLKPEDTAVYYCAADPWTSDSDYDRLTMYDYWGQGTQVTVSS
notes: as for B1
B8: ABTx316 VHH-Fc (Fc fusion)
chain: QVQLVESGGGLVQAGGSLRLSCAASGGTVSSYAMGWFRQAPGKEREFVAVISWSGGRTYYADSVKGRFTISRDNAKNTVNLQMNSLKPEDTAVYYCAADPWTSDSDYERLTMYDYWGQGTQVTVSS
notes: as for B1
B9: ABTx317 VHH-Fc (Fc fusion)
chain: QVQLVESGGGLVQAGASLRLSCAASGRTTYNMGWFRHAPGKDREFVAAIDLYGRATRYANSVKGRFTISRDNAKNTVYLQMNSLKPEDTAVYYCAADTSLPLGVLTKSQRMYGAWGQGTQVTVSS
notes: as for B1
B10: ABTx331 VHH-Fc (Fc fusion)
chain: QVQLVESGGGLVQAGASLRLSCAASGRTTYNMGWFRHAPGKDREFVAAIDLYGRATRYANSVKGRFTISRDNAKNTVYLQMNSLKPEDTAVYYCAADTSLPLGVLTESQRLYGAWGQGTQVTVSS
notes: as for B1
B11: ABTx318 VHH-Fc (Fc fusion)
chain: QVQLQESGGGSVQAGGSLRLSCAASGRAFSAYAMGWFRQAPGKEREFVAAINWNGDTALRWNGFATRYADSVKGRFTISRVIAKNTVNLQMNSLKPEDTAVYYCAADTVVSGSYYLAARAEDYEYWGQGTQVTVSS
notes: as for B1
B12: ABTx325 VHH-Fc (Fc fusion)
chain: QVQLVESGGGLVQPGGSLRLSCAASGSDASTNNMAWYRQAPGKEREFVALIRTGGSTHVADSMKGRFTISRENAKNTVYLQMNSLKPEDTAVYYCVIWTGSPGALSDYWGQGTQVTVSS
notes: as for B1
B13: ABTx330 VHH-Fc (Fc fusion)
chain: EVQLVESGGGLVQPGGSLRLSCAASGFPFSSSFMSWVRQAPGKGLEWVSTIYSDGSTYYADSVKGRFTISRDNAKKTAYLQMNSLKAEDTAVYYCATVTGSIRGQGTQVTVSS
notes: as for B1
B14: ABTx327 VHH-Fc (Fc fusion)
chain: QVQLVESGGGLVQPGGSLRLSCVASGGTFSTYGMGWFRQAPGKEREFVAVITGSGVGTQYADSVKDRFTISRENAKNTVYLQMNTLKLEDTAVYYCVSGHRPGWAVIRADAYEYWGQGTQVTVSS
notes: as for B1
B15: ABTx329 VHH-Fc (Fc fusion)
chain: QLQLVESGGGLVQPGESLRLSCAASGFSFSRVGMNWYRQAPGKERELVASISSDGSRTNYAHFVKGRFTISRDNVKNMVYLQMNSLKLEDTAVYYCNVPGNSWGQGTQVTVSS
notes: as for B1
B16: ABTx326 VHH-Fc (Fc fusion)
chain: QVQLVESGGGLVQPGGSLRLSCAASGRTFINYAAGWFRQAPGKEREFVARISRSGGRTDYADSVKGRFTISRDNAKSTVYLQMNSLRPEDTAVYYCAEATVWEFTDGADQYDYWGQGTQVTVSS
notes: as for B1
B17: ABTx322 VHH-Fc (Fc fusion)
chain: QLQLVESGGGLVQPGGSLRLSCAASGSDFLVDATTWFRQAPGNQREFVAIMDIGGVTEYADSVKGRFTISRDHTKNTVYLQMNSLKVEDTAVYYCNTRGLWGQGTLVTVSS
notes: as for B1

The assay concerns the target T1, huCD5-BTN. Description: BLI in tandem, huCD5-BTN saturated with UCHT2 first; competitor UCHT2.
B1: the response turned out to be 1.17 Response Units.

The molecule B2 gave a response of 0.663 Response Units.

As for B3, the response is 0.325 Response Units.

As for B4, the response amounted to 0.0713 Response Units.

In turn, B5 returned a response of 0.153 Response Units.

In the case of B6, the response amounted to 0.317 Response Units.

Molecule B7 gave a response of 0.498 Response Units.

Regarding B8, the response was 0.394 Response Units.

The molecule B9 yielded a response of 1.24 Response Units.

B10: the response came out at 0.232 Response Units.

As for B11, the response was 1.15 Response Units.

For the molecule B12, the response was 0.396 Response Units.

In the case of B13, the response is 0.367 Response Units.

B14 returned a response of 0.025 Response Units.

Take B15: the response worked out at 0.24 Response Units.

The molecule B16 registered a response of 0.0571 Response Units.

B17 had a response of -0.137 Response Units.
